Measured values from paper PMC4032258, “Transmembrane Recognition of the Semaphorin Co-Receptors Neuropilin 1 and Plexin A1: Coarse-Grained Simulations” (PLoS ONE, 2014).

Target: the molecule itself
Experiment: two-hybrid; bacterial adenylate cyclase two-hybrid (BACTH) in E. coli BTH101 (cya-); TM sequences fused to T18 and T25 fragments of CyaA behind an OmpA signal sequence; read out on MacConkey indicator plates and by beta-galactosidase activity, normalised to GpA-GpA as 100%

B1: Neuropilin 1 transmembrane domain (NRP1 TM), BACTH fusion (domain or fragment, human)
chain: ILITIIAMSALGVLLGAVCGVVLYRKR
notes: not part of NRP1; Modified pKTN25 and pUT18 plasmids; also called NRP1 TM domain; source: bacterial two-hybrid fusion (BACTH), E. coli BTH101 (cya-), cotransformed plasmids; not shown: T25 or T18 fragment of Bordetella pertussis adenylate cyclase CyaA, C-terminal, kept
With B1 the “interaction propensity (beta-galactosidase activity) relative to GpA-GpA” value was about 50%.
